Assay results reported in PMC6920703, “Measuring glycolytic flux in single yeast cells with an orthogonal synthetic biosensor” (Molecular Systems Biology, 2019).
Substitutions are numbered along the chain they refer to. Names and notes keep the numbering of the source. “Also recorded” adds a separate entry of the source. Values belong to the molecule of their own block, whether it stands above or below them.

How the values were obtained:
wild-type CggR = molecular target: T1, wild-type CggR (Bacillus subtilis, UniProt O32253); test: Thermal shift assay of purified CggR with SYPRO Orange and 0-36 mM FBP (20 to 99 °C in 0.5 °C steps, NaCl counter-ion controls), no DNA; KD from fitting Tm data to a simple cooperative binding model in GraphPad.
T1 sequence (O32253 1-340): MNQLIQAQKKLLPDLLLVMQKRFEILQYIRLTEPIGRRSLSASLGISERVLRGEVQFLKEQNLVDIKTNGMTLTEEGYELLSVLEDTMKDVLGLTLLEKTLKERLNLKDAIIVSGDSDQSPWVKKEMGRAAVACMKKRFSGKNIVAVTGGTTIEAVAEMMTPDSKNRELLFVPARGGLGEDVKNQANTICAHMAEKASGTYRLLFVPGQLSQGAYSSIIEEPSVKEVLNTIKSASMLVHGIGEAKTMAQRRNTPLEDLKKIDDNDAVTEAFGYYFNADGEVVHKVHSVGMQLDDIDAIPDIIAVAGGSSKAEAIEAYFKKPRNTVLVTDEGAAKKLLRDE
Source text: We generated these CggR mutants with site‐directed mutagenesis, expressed in E. coli, purified, and biochemically characterized them. To this end, we used thermal shift assays to assess protein stability and ligand binding.
Figure 5 Biochemical characterization of CggR and respective mutants • Thermal shift assays were used to determine the melting curves of wild‐type CggR and mutants. Error bars correspond to the standard deviation of at least five replicates. • CggR‐FBP affinity constants (KD's) of the wild type and mutant variants, determined by fitting a simple cooperative binding model to the melting curves data. Error bars indicate the 95% confidence intervals. • Quantification of CggR binding to DNA. The CggR bound to DNA fraction was calculated by dividing the intensity of the protein–DNA complex band by the total DNA. The background‐subtracted total intensities of the CggR–DNA complex and the free‐DNA bands were assessed with ImageJ. Error bars correspond to the standard deviation of three replicate experiments for the mutants and six for the wild type. • Summary of the biochemical characterization of the wild type and mutant CggR variants. […]
(§1) The K D of the wild type and mutant CggR variants was calculated by fitting the T m data into a simple cooperative model using the GraphPad software.

[1] = tested on: CggR R250A (Bacillus subtilis); test: EMSA; conditions: 20 mM FBP; 35 nM DNA, 2 or 4 uM CggR, 10 mM Na3PO4 pH 7.8, 100 mM NaCl, 1 mM EDTA, 1 mM DTT, 5% glycerol, 1 ug salmon sperm DNA, 20 min room temperature; 5% native PAGE …
[2] = tested on: CggR wild type (Bacillus subtilis); test: EMSA; conditions: 20 mM FBP; 35 nM DNA, 2 or 4 uM CggR, 10 mM Na3PO4 pH 7.8, 100 mM NaCl, 1 mM EDTA, 1 mM DTT, 5% glycerol, 1 ug salmon sperm DNA, 20 min room temperature; 5% native PAGE …
[3] = Thermal shift assay: protein stability (melting temperature) of CggR variants; conditions: for Protein stability: desired/undesired sign / Protein stability: Fig 5D; for Protein stability: compared with wild type
Procedure: A sample mixture of 25 μl final volume containing 5 μl of 5× SYPRO Orange (Molecular Probes; Eugene, OR), 0.2 mg of the purified CggR, and different concentrations of the FBP metabolite (0; 0.01; 0.1; 0.5; 0.75; 1; 2.5; 10; 20; and 36 mM) was prepared on ice. Control experiments were performed to test the effect of the counter ion NaCl present in FBP salt solutions. Here, the NaCl was added instead of FBP to a final concentration threefold higher than the FBP itself (0; 0.03; 0.3; 1.5; 2.25; 3; 7.5; 30; 60; and 108 mM).
Sample mixtures were transferred into 96‐well PCR plates (Bio‐Rad, CA, USA), sealed with Optical‐Quality Sealing Tape (Bio‐Rad, CA, USA), and analyzed in a CFX96 Real‐Time System combined with C1000 Touch Thermal Cycler (Bio‐Rad, CA, USA). Analysis consisted of a single heating cycle from 20 to 99°C with increments of 0.5°C steps, followed by fluorescence intensity monitoring with a charge‐coupled device camera. The wavelengths for excitation and emission were 490 and 575 nm, respectively. The melting temperature (T m) was automatically calculated by the control software and corresponded to the local maximum of the first derivative of measured fluorescence versus temperature.

[4] = tested on: DNA fragments containing the CggR operator sites; test: Electrophoresis mobility shift assay: CggR binding to DNA; conditions: for DNA binding affinity: desired/undesired sign / DNA binding affinity: Fig 5D; for DNA binding affinity: compared with wild type; for CggR binding to DNA in the absence of FBP: 0 mM FBP, Fig 5C; for DNA binding affinity: desired/undesired sign: key: +: A plus sign indicates desired characteristics achieved in the mutants; -: a minus sign indicates undesired effects of the mutations
Procedure: Fluorescently labeled DNA fragments were generated by hybridization of single‐stranded forward (labeled with Alexa Fluor 647 at the 5′ end) and reverse (unlabeled) oligonucleotides containing the CggR operator sites. The hybridization protocol and respective hybridization efficiency control were performed as described elsewhere (Bley Folly et al, 2018).
Hybridized labeled DNA fragments (final concentration 35 nM) were incubated 20 min at room temperature with 2 or 4 μM of the purified wild type or mutant CggR variants, in the presence of different concentrations of FBP (0; 0.5; 1; 2.5; 5; 10; and 20 mM) in a final volume of 25 μl in binding buffer (10 mM Na3PO4 pH 7.8, 100 mM NaCl, 1 mM EDTA, 1 mM DTT, 5% glycerol) including 1 μg of salmon sperm DNA. The sample mixtures were loaded in a 5% native polyacrylamide gel and run in native conditions in the dark with constant voltage (200V) at 4°C for 2 h.
Fluorescence was imaged using the Typhoon 9400 (Amersham Biosciences, UK) with the excitation set to 650 nm and the emission set to 655 nm. The background‐subtracted total intensities of the protein–DNA complex and the free‐DNA bands were assessed using ImageJ (Abràmoff et al, 2004), and bound DNA/total DNA was calculated by dividing the intensity of the protein–DNA complex band by the total DNA (i.e., the sum of the signal from the protein–DNA complex band plus the one from free DNA).

[5] = Thermal shift assay: CggR-FBP affinity constants (KD) from melting curves; assay type: binding; conditions: for KD ratio change (KD of the CggR mutant variant / KD of the wild type) / KD ratio change: desired/undesired sign: Fig 5D; for Obtained effects on affinity for FBP: classification based on thermal shift assays; for KD ratio change: desired/undesired sign: key: +: A plus sign indicates desired characteristics achieved in the mutants; -: a minus sign indicates undesired effects of the mutations
Procedure: as §1

[6] = KD for FBP relative to wild type CggR (1 mM)

Kd (wild-type CggR): 1000 µM
Molecule: O=P(O)(O)OC[C@H]1OC(O)(COP(=O)(O)O)[C@@H](O)[C@@H]1O (stereo partly shown) [FBP, fructose-1,6-bisphosphate]

Molecule: CggR operator duplex (CggRO)
binding signal (% of CggR remaining bound vs 0 mM FBP) [1]: 30
binding signal (% of CggR remaining bound vs 0 mM FBP) [2]: 30

Obtained effects on DNA binding affinity [4]: No effect
DNA binding affinity: desired/undesired sign [4]: +
DNA binding affinity [4]: Same range
KD ratio change (KD of the CggR mutant variant / KD of the wild type) [5]: 0.90
KD ratio change: desired/undesired sign [5]: -
fold lower KD than wild type [5, 6]: 1.1 fold
Obtained effects on affinity for FBP [5]: mild affinity increase
B1: T151S: CggR mutant, position 151 Thr to Ser, at the CggR-FBP-binding site (protein, UniProt O32253 1-340, looked up, variant T151S)
Central glycolytic genes …: T1 sequence (O32253 1-340) with T151S
Obtained effects on stability [3]: No effect
Protein stability: desired/undesired sign [3]: +
Protein stability [3]: Same range

Obtained effects on DNA binding affinity [4]: Disrupted affinity
CggR binding to DNA in the absence of FBP [4]: did not bind to the DNA anymore
DNA binding affinity: desired/undesired sign [4]: -
DNA binding affinity [4]: No binding
KD ratio change (KD of the CggR mutant variant / KD of the wild type) [5]: 0.98
KD ratio change: desired/undesired sign [5]: -
Obtained effects on affinity for FBP [5]: negligible affinity increase
B2: R175K: CggR mutant, position 175 Arg to Lys, at the CggR-FBP-binding site (protein, UniProt O32253 1-340, looked up, variant R175K)
Central glycolytic genes …: T1 sequence (O32253 1-340) with R175K
Obtained effects on stability [3]: No effect
Protein stability: desired/undesired sign [3]: +
Protein stability [3]: Same range

Obtained effects on DNA binding affinity [4]: No effect
DNA binding affinity: desired/undesired sign [4]: +
DNA binding affinity [4]: Same range
KD ratio change (KD of the CggR mutant variant / KD of the wild type) [5]: 0.62
KD ratio change: desired/undesired sign [5]: -
fold lower KD than wild type [5, 6]: 1.6 fold
B3: T152S: CggR mutant, position 152 Thr to Ser, at the CggR-FBP-binding site (protein, UniProt O32253 1-340, looked up, variant T152S)
Central glycolytic genes …: T1 sequence (O32253 1-340) with T152S
Obtained effects on stability [3]: No effect
Protein stability: desired/undesired sign [3]: +
Protein stability [3]: Same range

Obtained effects on DNA binding affinity [4]: No effect
CggR binding to DNA in the absence of FBP [4]: similar
CggR remained bound to DNA at high FBP levels ([4]; 20 mM FBP relative to bound fraction at 0 mM FBP): around 30%
DNA binding affinity: desired/undesired sign [4]: +
DNA binding affinity [4]: Same range
KD ratio change (KD of the CggR mutant variant / KD of the wild type) [5]: 1.52
KD ratio change: desired/undesired sign [5]: +
B4: R250A: CggR mutant, position 250 Arg to Ala; selected for the glycolytic flux biosensor (protein, UniProt O32253 1-340, looked up, variant R250A)
Central glycolytic genes …: T1 sequence (O32253 1-340) with R250A
Obtained effects on stability [3]: No effect
Protein stability [3]: Same range
Obtained effects on affinity for FBP [5]: desired decrease in FBP affinity; also recorded: strong affinity decrease

Obtained effects on DNA binding affinity [4]: Disrupted affinity
CggR binding to DNA in the absence of FBP [4]: did not bind to the DNA anymore
DNA binding affinity: desired/undesired sign [4]: -
DNA binding affinity [4]: No binding
KD ratio change (KD of the CggR mutant variant / KD of the wild type) [5]: 0.79
KD ratio change: desired/undesired sign [5]: -
Obtained effects on affinity for FBP [5]: mild affinity increase
B5: E269Q: CggR mutant, position 269 Glu to Gln, at the CggR-FBP-binding site (protein, UniProt O32253 1-340, looked up, variant E269Q)
Central glycolytic genes …: T1 sequence (O32253 1-340) with E269Q
Obtained effects on stability [3]: Strong decrease
Protein stability [3]: Very low

Obtained effects on DNA binding affinity [4]: Reduced affinity
CggR binding to DNA in the absence of FBP [4]: only bound with lower affinity
DNA binding affinity: desired/undesired sign [4]: -
DNA binding affinity [4]: Reduced
KD ratio change (KD of the CggR mutant variant / KD of the wild type) [5]: 2.59
KD ratio change: desired/undesired sign [5]: +
fold increase of KD over wild type [5, 6]: 2.6 fold
Obtained effects on affinity for FBP [5]: strong affinity decrease
B6: T151V: CggR mutant, position 151 Thr to Val, at the CggR-FBP-binding site (protein, UniProt O32253 1-340, looked up, variant T151V)
Central glycolytic genes …: T1 sequence (O32253 1-340) with T151V
Obtained effects on stability [3]: Strong decrease
Protein stability [3]: Very low
